Measurements: patent US20260250320A1, “LIPIDATED PEPTIDE INHIBITORS OF INTERLEUKIN-23 RECEPTOR” (Janssen Pharmaceutica NV, priority 2023, published 2026)
*1 amine or outer side, *2 acyl side, *3 side chain or, on linkers, in order; H or OH if unused. Bridges are numbered along the chain shown (N, C = ends). Primed or numbered codes have the meaning given here. Where no end group is shown, it is not given here. Side-chain parts run from the residue outwards. [ ]: non-standard residue; d: D form. PEG2′ = PEG2 spacer unit (not further defined); Trp(7-Me) = Cc1cccc2c(C[C@H](N)C(=O)O)c[nH]c12; γGlu = O=C(O)[C@H](CCC(=O)[*:2])N[*:1]; 2Nal = N[C@@H](Cc1ccc2ccccc2c1)C(=O)O; AEF = NCCOc1ccc(C[C@H](N)C(=O)O)cc1; 3Pal = N[C@@H](Cc1cccnc1)C(=O)O; NMeK = CN[C@@H](CCCCN)C(=O)O; NMecPEG3a = not defined here; Pen = CC(C)(S)[C@H](N)C(=O)O; NMeC18OH = not defined here; 5cpaCO = not defined here; PEG2″ = PEG2 spacer unit; Thp = NC1(C(=O)O)CCOCC1; Sar = CNCC(=O)O

T1: interleukin-23 receptor (IL-23R) (UniProt Q5VWK5 24-629, limits assumed)
T1 sequence (looked up): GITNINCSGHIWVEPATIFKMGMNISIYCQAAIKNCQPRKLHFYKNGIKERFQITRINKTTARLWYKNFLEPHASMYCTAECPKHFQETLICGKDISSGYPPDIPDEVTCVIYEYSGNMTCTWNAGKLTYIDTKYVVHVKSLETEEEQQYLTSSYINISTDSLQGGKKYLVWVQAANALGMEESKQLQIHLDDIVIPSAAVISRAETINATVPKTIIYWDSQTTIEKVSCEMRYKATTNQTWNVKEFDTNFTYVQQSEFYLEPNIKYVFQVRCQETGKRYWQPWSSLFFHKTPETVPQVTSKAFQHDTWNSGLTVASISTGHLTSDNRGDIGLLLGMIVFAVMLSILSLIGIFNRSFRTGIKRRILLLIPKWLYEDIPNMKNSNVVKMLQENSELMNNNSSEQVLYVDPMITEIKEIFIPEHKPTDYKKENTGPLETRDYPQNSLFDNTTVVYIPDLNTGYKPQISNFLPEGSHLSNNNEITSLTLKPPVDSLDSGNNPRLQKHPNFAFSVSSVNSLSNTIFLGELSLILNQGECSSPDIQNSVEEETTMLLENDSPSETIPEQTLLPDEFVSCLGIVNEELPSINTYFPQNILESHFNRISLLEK

B1: SEQ ID NO: 55 (peptide)
peptide: [dR][Pen]K([PEG2″-PEG2″-γGlu-C18OH])T[Trp(7-Me)]K(Ac)[Pen][AEF][2Nal][Thp]EN[3Pal][Sar]-NH2
modifications: disulfide 2-7 (inferred); not fully specified (N-terminus); printed as cPEG3aCO-r-Pen(3)-K(PEG2PEG2gEC18OH)-T-7MeW-K(Ac)-Pen(3)-AEF-2Nal-THP-E-N-3Pya-Sar-CONH2
B2: SEQ ID NO: 71 (peptide)
peptide: [dR][Pen]NT[Trp(7-Me)]K([PEG2″-PEG2″-C18OH])[Pen][AEF][2Nal][Thp]EN[3Pal][Sar]-NH2
modifications: disulfide 2-7 (inferred); not fully specified (N-terminus); printed as 5cpaCO-r-Pen(3)-N-T-7MeW-K(PEG2PEG2C18OH)-Pen(3)-AEF-2Nal-THP-E-N-3Pya-Sar-CONH2
B3: SEQ ID NO: 72 (peptide)
peptide: [dR][Pen]NT[Trp(7-Me)]K([PEG2″-PEG2″-C18OH])[Pen][AEF][2Nal][Thp]EN[3Pal][Sar]-NH2
modifications: disulfide 2-7 (inferred); not fully specified (N-terminus); printed as cPEG3aCO-r-Pen(3)-N-T-7MeW-K(PEG2PEG2C18OH)-Pen(3)-AEF-2Nal-THP-E-N-3Pya-Sar-CONH2
B4: SEQ ID NO: 73 (peptide)
peptide: [dR][Pen]K([PEG2″-PEG2″-γGlu-C18OH])T[Trp(7-Me)]K(Ac)[Pen][AEF][2Nal][Thp]EN[3Pal][Sar]-NH2
modifications: disulfide 2-7 (inferred); not fully specified (N-terminus); printed as 5cpaCO-r-Pen(3)-K(PEG2PEG2gEC18OH)-T-7MeW-K(Ac)-Pen(3)-AEF-2Nal-THP-E-N-3Pya-Sar-CONH2
B5: SEQ ID NO: 77 (peptide)
peptide: XNTXXXXXXKNXX
modifications: 5cpaCO-Pen(3)-N-T-7MeW-K(Ac)-Pen(3)-AEF-2Nal-THP-K(PEG2PEG2gEC18OH)-N-3Pya-Sar-CONH2
B6: SEQ ID NO: 78 (peptide)
peptide: XNTXXXXXXKNXX
modifications: cPEG3aCO-Pen(3)-N-T-7MeW-K(Ac)-Pen(3)-AEF-2Nal-THP-K(PEG2PEG2gEC18OH)-N-3Pya-Sar-CONH2
B7: SEQ ID NO: 79 (peptide)
peptide: Ac-[dR][Pen]NT[Trp(7-Me)]K([PEG2′-PEG2′-γGlu-C18OH])[Pen][AEF][2Nal][Thp]K(NMecPEG3a)N[3Pal][Sar]-NH2
modifications: disulfide 2-7 (inferred); reading uncertain; also: printed as MeCO-r-Pen(3)-N-T-7MeW-K(PEG2PEG2gEC18OH)-Pen(3)-AEF-2Nal-THP-K(NMecPEG3a)-N-3Pya-Sar-CONH2
B8: SEQ ID NO: 81 (peptide)
peptide: 5cpaCO-[dR][Pen]NT[Trp(7-Me)]K(Ac)[Pen][AEF][2Nal][Thp]EN[3Pal][Sar]K([PEG2′-PEG2′-γGlu-C18OH])-NH2
modifications: disulfide 2-7 (inferred); reading uncertain; also: printed as 5cpaCO-r-Pen(3)-N-T-7MeW-K(Ac)-Pen(3)-AEF-2Nal-THP-E-N-3Pya-Sar-K(PEG2PEG2gEC18OH)-CONH2

Molecular target: T1, interleukin-23 receptor (IL-23R)
Experiment: cell-based or functional assay

PBMC pSTAT3 IC50, < 0.5 nM:
B1
Ac-[dK]([PEG2″-PEG2″-γGlu-C18OH])[Pen]NT[Trp(7-Me)]K(Ac)[Pen][AEF][2Nal][Thp]EN[3Pal][Sar]-NH2 (disulfide 2-7) [SEQ ID NO: 58]
Ac-[dR][Pen]NT[Trp(7-Me)]K([PEG2″-PEG2″-γGlu-C18OH])[Pen][AEF][2Nal][Thp]EN[3Pal][Sar]-NH2 (disulfide 2-7) [SEQ ID NO: 59]
B2
B3
B4
B5
B6
B7
Ac-[dR][Pen]NT[Trp(7-Me)]K(Ac)[Pen][AEF][2Nal][Thp]EN[3Pal][NMeK]([PEG2′-NMePEG2-NMegE-NMeC18OH])-NH2 (disulfide 2-7 (inferred); reading uncertain) [SEQ ID NO: 80]
B8
